Where “and” joins values, the source holds several entries; their conditions need not be identical. Equal values may be shown once.
B1: Serine protease 1 wild type, P00760 (protein)
chain: MKTFIFLALLGAAVAFPVDDDDKIVGGYTCGANTVPYQVSLNSGYHFCGGSLINSQWVVSAAHCYKSGIQVRLGEDNINVVEGNEQFISASKSIVHPSYNSNTLNNDIMLIKLKSAASLNSRVASISLPTSCASAGTQCLISGWGNTKSSGTSYPDVLKCLKAPILSDSSCKSAYPGQITSNMFCAGYLEGGKDSCQGDSGGPVVCSGKLQGIVSWGSGCAQKNKPGVYTKVCNYVSWIKQTIASN
B2: Anionic trypsin wild type, Q29463 (protein)
chain: MHPLLILAFVGAAVAFPSDDDDKIVGGYTCAENSVPYQVSLNAGYHFCGGSLINDQWVVSAAHCYQYHIQVRLGEYNIDVLEGGEQFIDASKIIRHPKYSSWTLDNDILLIKLSTPAVINARVSTLLLPSACASAGTECLISGWGNTLSSGVNYPDLLQCLVAPLLSHADCEASYPGQITNNMICAGFLEGGKDSCQGDSGGPVACNGQLQGIVSWGYGCAQKGKPGVYTKVCNYVDWIQETIAANS

Details: Bos taurus; pH 4.2; Thermal; Fluorescence; acetate 30 mM; reversible: yes; whole UniProt chain shown
For B1, the Tm was 66 °C and 65 °C, the “heat capacity change of unfolding” value was 3.09 kcal/mol/K and 2.64 kcal/mol/K and the “unfolding enthalpy (van 't Hoff)” value was 150 kcal/mol and 164 kcal/mol.

Same assay, conditions: Bos taurus; pH 7.5; 25 °C; GdnHCl; Fluorescence; Tris-HCl 0.1 M; CaCl2 20 mM; reversible: no; whole UniProt chain shown
With B1 the denaturant m value was 4.22 kcal/mol/M, the “denaturant midpoint (higher = more stable)” value (“denaturant midpoint” for short) was 2.5 M and the unfolding free energy was 10.6 kcal/mol.

Same assay, conditions: Bos taurus; pH 8.3; 25 °C; GdnHCl; Fluorescence; Tris-HCl 0.1 M; CaCl2 20 mM; reversible: no; whole UniProt chain shown
For B1, the denaturant m value was 4.1 kcal/mol/M, the “denaturant midpoint” value was 2.27 M and the unfolding free energy was 9.3 kcal/mol.

Same assay, conditions: Bos taurus; pH 5.8; 25 °C; GdnHCl; Fluorescence; MES 30 mM; CaCl2 20 mM; reversible: yes; whole UniProt chain shown
For B2, the denaturant m value was 5.74 kcal/mol/M, the “denaturant midpoint” value was 2.19 M and the unfolding free energy was 12.5 kcal/mol.

Source: FireProtDB (doi:10.1006/jmbi.1995.0174)
